The text below walks through data of publication doi:10.1101/2023.03.17.533217 (2023).

To fix the notation:
B3: Aurora A kinase (AurA), residues 122-403, dephosphorylated (domain or fragment)
chain: ESKKRQWALEDFEIGRPLGKGKFGNVYLAREKQSKFILALKVLFKAQLEKAGVEHQLRREVEIQSHLRHPNILRLYGYFHDATRVYLILEYAPLGTVYRELQKLSKFDEQRTATYITELANALSYCHSKRVIHRDIKPENLLLGSAGELKIADFGWSVHAPSSRRTTLCGTLDYLPPEMIEGRMHDEKVDLWSLGVLCYEFLVGKPPFEANTYQETYKRISRVEFTFPDFVTEGARDLISRLLKHNPSQRPMLREVLEHPWITANSSKPSNCQNKESASKQS

The target of experiment [1] is B3. Description: ITC. In general terms: Isothermal titration calorimetry measures the heat released or taken up as one component is titrated into another.
The target in experiment [2] is B3. The experiment can be described thus: ITC; 150 µM danusertib.
For experiment [3], the target named is B3. The experiment can be described thus: ITC; 50 µM danusertib.
Experiment [4] addresses B3. The experiment can be described thus: ITC; danusertib.
Experiment [5] concerns the target Mb3. The experiment can be described thus: ITC.
Experiment [6] deals with Mb3. The experiment can be described thus: ITC; danusertib.

B1: activating monobody Mb1 (designed binder)
chain: GSVSSVPTKLEVVAATPTSLLISWDAQTYQMYDYVSYYRITYGETGGNSPVQEFTVPGYYSTATISGLKPGVDYTITVYAEGYYSSYSPISINYRT
On to B1, for which the Kd (in general, the concentration at which binding is half-saturated) in experiment [1] was 952 nM; in experiment [2] it was 17700 nM; in experiment [3], 18000 nM.

B2: inhibiting monobody Mb2 (designed binder)
chain: GSVSSVPTKLEVVAATPTSLLISWDAPAVTVVHYVITYGETGGNSPVQEFTVPGSKSTATISGLKPGVDYTITVYAIDFYWGSYSPISINYRT
Regarding B2, the Kd was determined as 1500 nM in experiment [1] and 889 nM in experiment [4].

For the molecule B3, the Kd in experiment [5] amounted to 180 nM; in experiment [6] it was 69 nM.
